Holding throughout (assay): pHLA tetramer staining of transfected HEK293T cells
Assay [1] has as its target HLA-B*57:01-LF9 A8 tetramer. To be noted: parent: est. 57; read off a plot.
Assay [2] has as its target HLA-B*57:01-LF9 L8 tetramer. To be noted: parent: est. 58; read off a plot.
Assay [3] deals with HLA-B*57:01-TW10 T3N tetramer. The following applies: read off a plot; for response: parent: est. 19, scale: relative to HLA-B*57:01-TW10 binding to KIR3DL1*001; for percent of parent (normalized to *001 (=100)): parent: est. 100.
For assay [4], the target named is HLA-B*57:01-TW10 tetramer. The following applies: parent: est. 100, read off a plot; for response: scale: relative to HLA-B*57:01-TW10 binding to KIR3DL1*001.

“FLAG-tagged KIR3DL1*001 (from UniProt P43629) G138W”: the figures for the response in assay [1], in assay [2] and in assay [3] were 40, 23 and 10, respectively. Moreover, the percent of parent (normalized to *001 (=100)) in assay [3] worked out at 44.

Turning to “FLAG-tagged KIR3DL1*001 (from UniProt P43629) L166R”, the response in assay [1] came out at 9; in assay [2] it was 5; in assay [3] it was 8; in assay [4], 48. For the same substance, the results for the percent of parent (normalized to *001 (=100)) in assay [3] and in assay [4] were 36 and 48, respectively.

“FLAG-tagged KIR3DL1*001 (from UniProt P43629) P163S”: the results for the response in assay [1], in assay [3] and in assay [4] were 45, 9 and 97, respectively. In addition, the results for the percent of parent (normalized to *001 (=100)) in assay [3] and in assay [4] were 41 and 97, respectively.

On to “FLAG-tagged KIR3DL1*001 (from UniProt P43629) P199L”, for which the response in assay [1] was 70. In assay [4], the percent of parent (normalized to *001 (=100)) is 190 and the response was 190.

Source of the values: publication PMC4442525.
